Reference: the supplement of paper PMC7125110
± gives the standard error. For some assays here: This sample holds only a part of the variants without activity.

B1: glmS ribozyme (parent)
chain: AUAAAAGCGCCAGAACUACAGAAAUGUAGUUGACGAGGAGGAGGUUUAUCGAAUUUUCGGCGGAUGCCUCCAAA

Key:
Settings in all cases: with glucosamine-6-phosphate
glucosamine-6-phosphate [1] = variants of: B1; experiment: kcat; higher = faster cleavage; RNA array
How it was run: (§1)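 Glucosamine-6-phosphate (40 μM to 10 mM) in HEPES/KCl/Mg(OAc)2 buffer was flowed over sequenced MiSeq chips, and tiles were imaged over ~14 h. Barcoded ribozyme variants there had been transcribed in situ by E. coli RNA polymerase and were tracked through a hybridised Cy3 probe at 37 °C. One- or two-exponential decay fits to per-tile medians, normalised to baseline and to non-cleaving reference variants, gave kobs. kcat and KM came from weighted Michaelis–Menten fits across concentrations.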

glucosamine-6-phosphate [2] = variants of: B1; experiment: self-cleavage kobs at 160 uM GlcN6P; higher = faster cleavage; RNA array
How it was run: as §1

glucosamine-6-phosphate [3] = variants of: B1; experiment: self-cleavage kobs at 640 uM GlcN6P; higher = faster cleavage; RNA array
How it was run: as §1

glucosamine-6-phosphate [4] = variants of: B1; experiment: self-cleavage kobs at 40 uM GlcN6P; higher = faster cleavage; RNA array
How it was run: as §1

glucosamine-6-phosphate [5] = variants of: B1; experiment: self-cleavage kobs at 10000 uM GlcN6P; higher = faster cleavage; RNA array
How it was run: as §1

glucosamine-6-phosphate [6] = variants of: B1; experiment: KM; higher = weaker cofactor use; RNA array
How it was run: as §1

glucosamine-6-phosphate [7] = variants of: B1; experiment: self-cleavage kobs at 2500 uM GlcN6P; higher = faster cleavage; RNA array
How it was run: as §1

Variant	kcat (glucosamine-6-phosphate [1])	self-cleavage kobs at 160 uM GlcN6P (glucosamine-6-phosphate [2])	self-cleavage kobs at 640 uM GlcN6P (glucosamine-6-phosphate [3])	self-cleavage kobs at 40 uM GlcN6P (glucosamine-6-phosphate [4])	self-cleavage kobs at 10000 uM GlcN6P (glucosamine-6-phosphate [5])	KM (glucosamine-6-phosphate [6])	self-cleavage kobs at 2500 uM GlcN6P (glucosamine-6-phosphate [7])
C10G G32C	< 1e-05 s⁻¹	< 1e-05 s⁻¹	< 1e-05 s⁻¹				
G29U C34G	< 1e-05 s⁻¹			< 1e-05 s⁻¹	< 1e-05 s⁻¹		
U30G A53C	0.00231 ± 0.0004 s⁻¹	0.000159 ± 6.4e-05 s⁻¹	0.000512 ± 0.0001 s⁻¹		0.00177 ± 0.00022 s⁻¹	2690 ± 910 µM	0.00138 ± 0.00034 s⁻¹
G32C	0.000139 ± 1.7e-06 s⁻¹		2.26e-05 ± 1.4e-06 s⁻¹		0.000103 ± 1.4e-06 s⁻¹	3460 ± 110 µM	5.77e-05 ± 1.3e-06 s⁻¹
A15U C71G	0.000329 ± 9.4e-05 s⁻¹	4.2e-05 ± 8.4e-06 s⁻¹	9.25e-05 ± 9.6e-06 s⁻¹		0.000359 ± 4.3e-05 s⁻¹		0.000157 ± 2.3e-05 s⁻¹
G40C U55C	0.000721 ± 0.00014 s⁻¹	2.05e-05 ± 5.9e-06 s⁻¹	0.00012 ± 3.6e-05 s⁻¹		0.000483 ± 7.8e-05 s⁻¹	4590 ± 1400 µM	0.000287 ± 8.2e-05 s⁻¹
G44U C71U	0.000114 ± 4.5e-05 s⁻¹			< 1e-05 s⁻¹	8.62e-05 ± 1.2e-05 s⁻¹		9.61e-05 ± 1.4e-05 s⁻¹
U57C C67U	6.51e-05 ± 8.2e-06 s⁻¹		3.88e-05 ± 8.6e-06 s⁻¹		6.33e-05 ± 5.1e-06 s⁻¹		3.71e-05 ± 7.6e-06 s⁻¹
U57G C68G	4.47e-05 ± 1.1e-05 s⁻¹	4.02e-05 ± 1.5e-05 s⁻¹	4.72e-05 ± 1.4e-05 s⁻¹	2.48e-05 ± 1.2e-05 s⁻¹			5.88e-05 ± 1.3e-05 s⁻¹
U31G A52U G62U C67G	< 1e-05 s⁻¹			< 1e-05 s⁻¹	< 1e-05 s⁻¹		< 1e-05 s⁻¹
G40C A42U	3.99e-05 ± 4.6e-06 s⁻¹				3.64e-05 ± 1.1e-05 s⁻¹		4.68e-05 ± 2.2e-05 s⁻¹
U46A U55A	0.00375 ± 0.001 s⁻¹	0.00063 ± 0.00021 s⁻¹	0.00107 ± 0.00026 s⁻¹	5.91e-05 ± 1.3e-05 s⁻¹	0.00298 ± 0.00056 s⁻¹	2140 ± 820 µM	0.00221 ± 0.00094 s⁻¹
G63C U65G	< 1e-05 s⁻¹	< 1e-05 s⁻¹		< 1e-05 s⁻¹	< 1e-05 s⁻¹		
G13U A33U	1.31e-05 ± 3.3e-07 s⁻¹	< 1e-05 s⁻¹		< 1e-05 s⁻¹		1490 ± 190 µM	
U69C C70U	0.000681 ± 0.00015 s⁻¹	0.000108 ± 2.4e-05 s⁻¹	0.000254 ± 3.7e-05 s⁻¹	5.3e-05 ± 1.3e-05 s⁻¹	0.000743 ± 0.00018 s⁻¹	854 ± 350 µM	0.000524 ± 7.1e-05 s⁻¹
C50G U54G	4.74e-05 ± 1.5e-05 s⁻¹	7.22e-05 ± 1.2e-05 s⁻¹	4.18e-05 ± 1.1e-05 s⁻¹				3.85e-05 ± 1.5e-05 s⁻¹
